From doi:10.1101/208041 come the findings set out here.

What all share (assay): filter binding
Data set [1] has as its target T1, dMpAgo (catalytically inactive MpAgo) (Marinitoga piezophila, UniProt H2J4R4 1-639, D446A).
T1 sequence: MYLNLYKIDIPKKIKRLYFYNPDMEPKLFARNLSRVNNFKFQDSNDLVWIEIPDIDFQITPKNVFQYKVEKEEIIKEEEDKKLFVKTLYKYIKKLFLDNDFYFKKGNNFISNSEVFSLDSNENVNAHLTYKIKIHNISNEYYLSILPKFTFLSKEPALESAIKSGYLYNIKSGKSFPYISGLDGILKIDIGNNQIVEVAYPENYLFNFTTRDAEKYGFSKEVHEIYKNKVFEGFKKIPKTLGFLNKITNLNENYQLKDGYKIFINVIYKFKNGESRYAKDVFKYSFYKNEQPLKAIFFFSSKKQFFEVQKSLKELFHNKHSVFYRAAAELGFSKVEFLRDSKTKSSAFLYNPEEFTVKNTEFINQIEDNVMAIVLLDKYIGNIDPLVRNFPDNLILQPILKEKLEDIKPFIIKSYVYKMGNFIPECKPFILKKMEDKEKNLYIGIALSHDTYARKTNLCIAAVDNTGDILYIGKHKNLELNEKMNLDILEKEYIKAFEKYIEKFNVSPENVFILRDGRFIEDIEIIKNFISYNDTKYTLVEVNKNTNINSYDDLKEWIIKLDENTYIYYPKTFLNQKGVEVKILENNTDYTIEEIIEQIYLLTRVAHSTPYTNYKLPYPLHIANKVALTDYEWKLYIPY

Data set [2] concerns the target T1, dMpAgo (catalytically inactive MpAgo). This is another data set of the same source.
Data set [3] has the same target. The source holds these as a separate data set.
Data set [4] has the same target. This is another data set of the same source.
For data set [5] the target is unchanged. This is another data set of the same source.

Read-outs that look alike come from different tables or passages of the source.

B1: A7 guide / C target (mixed)
RNA 1: UAGCGGAUGCCAUAUCCAACU
RNA 2: GGCAGCAUUCAACCAUAUGGCACCCGCAUACAGCCAAG
modifications: BrdU at guide 1
B1: the binding signal in data set [1] is 47 fold Kd vs C7 guide/A target.

B2: C6 guide / G target (mixed)
RNA 1: UGCGGCUGCCAUAUGCAACUU
RNA 2: GGCAGCAUUCAACCAUAUGGCAGCCGCAUACAGCCAAG
modifications: BrdU at guide 1
As for B2, in data set [2], the binding result was “binds”.

B3: G6 guide / C target (mixed)
RNA 1: UGCGGGUGCCAUAUGCAACUU
RNA 2: GGCAGCAUUCAACCAUAUGGCACCCGCAUACAGCCAAG
modifications: BrdU at guide 1
As for B3, the binding signal in data set [3] is 13 fold Kd vs C6 guide/G target.

B4: A6 guide / mm1 (mixed)
RNA 1: UGCGGAUGCCAUAUGCAACUU
RNA 2: GGCAGCAUUCAACCAUAUGGCAUCCGCUUACAGCCAAG
modifications: BrdU at guide 1
Take B4: the binding result in data set [4] is on record as “binds”.

B5: G6 guide / U target (mixed)
RNA 1: UGCGGGUGCCAUAUGCAACUU
RNA 2: GGCAGCAUUCAACCAUAUGGCAUCCGCAUACAGCCAAG
modifications: BrdU at guide 1
As to B5, the binding result in data set [5] is listed as “binds”.
